# B1: 19b antigen-binding fragment (Fab) (Fab, V domains shown)
# VH: EVQLVQSGGALIQPGGSLRLSCAASGFTFVDYAMSWVRQAPGKGLQWVSTIIGSGADTYYTDSVKGRFTISRDNSNNTVHLQMNSLRADDTALYYCVRGVFDLWGQGTLVTVSS
# VL: DIVLTQSPPSLSASVGDRVTITCQASQDISDHLSWFQQKPGKAPKLLVYGVSSLEAGVPSRFSVSGSGTHFTFTVNGLQPEDLATYFCQQYDDLPWTFGPGTVVEVK
# Target: 5768-p27 V3 peptide (HIV-1 clade B isolate 5768-p27)
# Assay: SPR
binder,measurement,value
B1,koff,0.000147 s⁻¹
